Experimental data published in the supplement of paper PMC10065799, “High-throughput profiling of sequence recognition by tyrosine kinases and SH2 domains using bacterial peptide display” (eLife, 2023).

tested on: AncSZ; assay: phosphorylation enrichment, bacterial display (enrichment ratio); higher = better substrate or ligand; peptides without Tyr show the background;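 note: 11-residue human phosphosite peptides and single-mutation variants displayed on the E. coli surface, counted by deep sequencing, each peptide's frequency after selection divided by its frequency in the unselected input library; frequency after pTyr selection over input frequency; kinase dosed for 20-30% of maximal phosphorylation in three min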
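Throughout, for SH2 binding enrichment of the phosphorylated peptide, bacterial display: peptide library displayed on the E. coli surface as eCPX fusions, selected cells deep-sequenced, score is each peptide's frequency after selection divided by its frequency in the input.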

First: RTLSEYARPHV [RERE_Y1259]
Second: LSALDYKIFFF [WDPCP_Y210_YF]
The phosphorylation enrichment of the first is lower: 1.14 for the first, 1.5 for the second.

Going from QRAADYYSQQM [GBP6_Y333] to AVNNFYAAKKT [CCDC178_Y422_D420N], the phosphorylation enrichment falls from 1.29 to 0.708.

Compared with HKGASYVFRLS [PTPRD_Y891], LLARLYRGQAL [FGFR4_Y390_G388R] is lower in phosphorylation enrichment: 1 for the first, 0.9 for the second.

Compared with LNERHYGGLTD [PGAM2_Y92_G97D], YRDALYKFMVD [PHEX_Y250] is lower in phosphorylation enrichment: 1.18 for the first, 1.14 for the second.

Going from YDEYRYRSVIK [CFTR_Y517] to CLLHCYFSQIR [MCM3AP_Y873], the phosphorylation enrichment falls from 1.04 to 0.856.

Compared with VECRVYAEDPF [PCCA_Y401_YF], GTPVMYTYDEY [COL10A1_Y623] is lower in phosphorylation enrichment: 1.43 for the first, 1.26 for the second.

Compared with TEDPEYDVQSK [PTCHD3_Y335], GHGEEYPVAGA [NOTCH3_Y2221_A2223V] is lower in phosphorylation enrichment: 1.18 for the first, 0.763 for the second.

First: QHNPEYVQQAT [LRRC7_Y1058_S1063T]
Second: QNTGNYYDLYG [PTPN11_Y62_D61N]
The phosphorylation enrichment of the first is lower: 0.612 for the first, 2.38 for the second.

Going from TSKLNYLDPRI [TOP1_Y723] to KKLAEYGPQGR [CLCA1_Y147], the phosphorylation enrichment falls from 0.534 to 0.428.

Going from REESTYLPLTS [ICAM3_Y527] to NVVHEYSSELE [FGB_Y172_N170H], the phosphorylation enrichment falls from 1.62 to 1.02.

First: GGMTEYELVVV [KRAS_Y4_K5E]
Second: HPFNSYTFPRL [PAK5_Y316_S312P_YF]
The phosphorylation enrichment of the first is higher: 1.6 for the first, 1.3 for the second.

First: SMAKFYASGIA [ACADSB_Y373_E376G_YF]
Second: DGLALYTGSAL [COL6A3_Y524_S521L]
The phosphorylation enrichment of the first is lower: 0.738 for the first, 1.09 for the second.

Going from TYTVSYLPDMS [FLNC_Y1602] to DHAGMYGLGDR [MAPT_Y18_T17M], the phosphorylation enrichment falls from 1.05 to 0.556.

Compared with AGGTRYRFVSQ [UCN3_Y95_R91G_YF], RDSQLYAVDYE [MRPS34_Y34] is higher in phosphorylation enrichment: 0.426 for the first, 2.1 for the second.

First: WKEREYEVVRD [CPS1_Y634_I632R]
Second: AGLEEYSAMRD [HRAS_Y64_Q61L]
The phosphorylation enrichment of the first is higher: 1.26 for the first, 0.952 for the second.

Going from ALAAPYVLYPS [CEFIP_Y1332_G1337S] to FIGVTYKNEED [PDGFRA_Y993_YF], the phosphorylation enrichment rises from 0.786 to 1.02.

EPDSLYGCGRG [ATM_Y2019_G2023R] gave a phosphorylation enrichment of 0.933.

target: c-Src SH2; assay: SH2 binding enrichment of the phosphorylated peptide, bacterial display (enrichment ratio); higher = better substrate or ligand; peptides without Tyr show the background

First: RTLSEYARPHV [RERE_Y1259]
Second: LSALDYKIFFF [WDPCP_Y210_YF]
The SH2 binding enrichment of the first is lower: 0.553 for the first, 0.557 for the second.

Compared with QRAADYYSQQM [GBP6_Y333], AVNNFYAAKKT [CCDC178_Y422_D420N] is lower in SH2 binding enrichment: 0.56 for the first, 0.518 for the second.

Going from HKGASYVFRLS [PTPRD_Y891] to LLARLYRGQAL [FGFR4_Y390_G388R], the SH2 binding enrichment falls from 0.97 to 0.461.

Going from LNERHYGGLTD [PGAM2_Y92_G97D] to YRDALYKFMVD [PHEX_Y250], the SH2 binding enrichment rises from 0.528 to 0.572.

Compared with YDEYRYRSVIK [CFTR_Y517], CLLHCYFSQIR [MCM3AP_Y873] is higher in SH2 binding enrichment: 1.25 for the first, 1.53 for the second.

Compared with VECRVYAEDPF [PCCA_Y401_YF], GTPVMYTYDEY [COL10A1_Y623] is higher in SH2 binding enrichment: 0.54 for the first, 2.67 for the second.

Compared with TEDPEYDVQSK [PTCHD3_Y335], GHGEEYPVAGA [NOTCH3_Y2221_A2223V] is lower in SH2 binding enrichment: 0.557 for the first, 0.413 for the second.

First: QHNPEYVQQAT [LRRC7_Y1058_S1063T]
Second: QNTGNYYDLYG [PTPN11_Y62_D61N]
The SH2 binding enrichment of the first is lower: 0.429 for the first, 3.3 for the second.

First: TSKLNYLDPRI [TOP1_Y723]
Second: KKLAEYGPQGR [CLCA1_Y147]
The SH2 binding enrichment of the first is higher: 0.554 for the first, 0.546 for the second.

First: REESTYLPLTS [ICAM3_Y527]
Second: NVVHEYSSELE [FGB_Y172_N170H]
The SH2 binding enrichment of the first is lower: 0.787 for the first, 1.48 for the second.

Going from GGMTEYELVVV [KRAS_Y4_K5E] to HPFNSYTFPRL [PAK5_Y316_S312P_YF], the SH2 binding enrichment rises from 0.525 to 1.

Compared with SMAKFYASGIA [ACADSB_Y373_E376G_YF], DGLALYTGSAL [COL6A3_Y524_S521L] is higher in SH2 binding enrichment: 0.359 for the first, 0.36 for the second.

First: TYTVSYLPDMS [FLNC_Y1602]
Second: DHAGMYGLGDR [MAPT_Y18_T17M]
The SH2 binding enrichment of the first is lower: 0.375 for the first, 0.44 for the second.

Compared with AGGTRYRFVSQ [UCN3_Y95_R91G_YF], RDSQLYAVDYE [MRPS34_Y34] is higher in SH2 binding enrichment: 0.489 for the first, 0.545 for the second.

Going from WKEREYEVVRD [CPS1_Y634_I632R] to AGLEEYSAMRD [HRAS_Y64_Q61L], the SH2 binding enrichment falls from 6.04 to 0.572.

Going from ALAAPYVLYPS [CEFIP_Y1332_G1337S] to FIGVTYKNEED [PDGFRA_Y993_YF], the SH2 binding enrichment falls from 0.762 to 0.555.

EPDSLYGCGRG [ATM_Y2019_G2023R] gave an SH2 binding enrichment of 0.559.

target: SHP2-C SH2; assay: as above

Compared with RTLSEYARPHV [RERE_Y1259], LSALDYKIFFF [WDPCP_Y210_YF] is higher in SH2 binding enrichment: 0.532 for the first, 1.54 for the second.

Going from QRAADYYSQQM [GBP6_Y333] to AVNNFYAAKKT [CCDC178_Y422_D420N], the SH2 binding enrichment rises from 0.608 to 0.745.

First: HKGASYVFRLS [PTPRD_Y891]
Second: LLARLYRGQAL [FGFR4_Y390_G388R]
The SH2 binding enrichment of the first is higher: 2.11 for the first, 0.512 for the second.

Compared with LNERHYGGLTD [PGAM2_Y92_G97D], YRDALYKFMVD [PHEX_Y250] is lower in SH2 binding enrichment: 0.773 for the first, 0.665 for the second.

Compared with YDEYRYRSVIK [CFTR_Y517], CLLHCYFSQIR [MCM3AP_Y873] is higher in SH2 binding enrichment: 0.606 for the first, 1.65 for the second.

Going from VECRVYAEDPF [PCCA_Y401_YF] to GTPVMYTYDEY [COL10A1_Y623], the SH2 binding enrichment rises from 0.426 to 0.843.

First: TEDPEYDVQSK [PTCHD3_Y335]
Second: GHGEEYPVAGA [NOTCH3_Y2221_A2223V]
The SH2 binding enrichment of the first is higher: 0.871 for the first, 0.621 for the second.

First: QHNPEYVQQAT [LRRC7_Y1058_S1063T]
Second: QNTGNYYDLYG [PTPN11_Y62_D61N]
The SH2 binding enrichment of the first is lower: 0.617 for the first, 0.898 for the second.

Going from TSKLNYLDPRI [TOP1_Y723] to KKLAEYGPQGR [CLCA1_Y147], the SH2 binding enrichment falls from 1.09 to 0.631.

Going from REESTYLPLTS [ICAM3_Y527] to NVVHEYSSELE [FGB_Y172_N170H], the SH2 binding enrichment falls from 0.811 to 0.637.

First: GGMTEYELVVV [KRAS_Y4_K5E]
Second: HPFNSYTFPRL [PAK5_Y316_S312P_YF]
The SH2 binding enrichment of the first is lower: 0.528 for the first, 1.35 for the second.

Going from SMAKFYASGIA [ACADSB_Y373_E376G_YF] to DGLALYTGSAL [COL6A3_Y524_S521L], the SH2 binding enrichment falls from 1 to 0.46.

Compared with TYTVSYLPDMS [FLNC_Y1602], DHAGMYGLGDR [MAPT_Y18_T17M] is lower in SH2 binding enrichment: 0.623 for the first, 0.472 for the second.

Compared with AGGTRYRFVSQ [UCN3_Y95_R91G_YF], RDSQLYAVDYE [MRPS34_Y34] is lower in SH2 binding enrichment: 0.641 for the first, 0.631 for the second.

First: WKEREYEVVRD [CPS1_Y634_I632R]
Second: AGLEEYSAMRD [HRAS_Y64_Q61L]
The SH2 binding enrichment of the first is lower: 0.67 for the first, 0.693 for the second.

Compared with ALAAPYVLYPS [CEFIP_Y1332_G1337S], FIGVTYKNEED [PDGFRA_Y993_YF] is lower in SH2 binding enrichment: 0.804 for the first, 0.571 for the second.

For EPDSLYGCGRG [ATM_Y2019_G2023R], the SH2 binding enrichment was 0.886.

target: Grb2 SH2 (UniProt P62993); assay: as above
Sequence (P62993 whole entry, looked up): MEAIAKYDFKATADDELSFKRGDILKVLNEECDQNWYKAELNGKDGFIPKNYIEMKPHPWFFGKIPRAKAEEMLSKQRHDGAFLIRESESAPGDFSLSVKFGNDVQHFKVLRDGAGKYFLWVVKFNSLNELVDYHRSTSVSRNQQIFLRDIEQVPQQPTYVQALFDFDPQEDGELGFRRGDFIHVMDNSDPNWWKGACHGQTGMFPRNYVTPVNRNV

First: RTLSEYARPHV [RERE_Y1259]
Second: LSALDYKIFFF [WDPCP_Y210_YF]
The SH2 binding enrichment of the first is lower: 0.755 for the first, 0.84 for the second.

First: QRAADYYSQQM [GBP6_Y333]
Second: AVNNFYAAKKT [CCDC178_Y422_D420N]
The SH2 binding enrichment of the first is lower: 0.887 for the first, 0.965 for the second.

First: HKGASYVFRLS [PTPRD_Y891]
Second: LLARLYRGQAL [FGFR4_Y390_G388R]
The SH2 binding enrichment of the first is higher: 1.56 for the first, 0.827 for the second.

Compared with LNERHYGGLTD [PGAM2_Y92_G97D], YRDALYKFMVD [PHEX_Y250] is lower in SH2 binding enrichment: 0.98 for the first, 0.846 for the second.

Going from YDEYRYRSVIK [CFTR_Y517] to CLLHCYFSQIR [MCM3AP_Y873], the SH2 binding enrichment rises from 0.788 to 1.93.

First: VECRVYAEDPF [PCCA_Y401_YF]
Second: GTPVMYTYDEY [COL10A1_Y623]
The SH2 binding enrichment of the first is lower: 0.674 for the first, 0.954 for the second.

Compared with TEDPEYDVQSK [PTCHD3_Y335], GHGEEYPVAGA [NOTCH3_Y2221_A2223V] is lower in SH2 binding enrichment: 0.913 for the first, 0.762 for the second.

Going from QHNPEYVQQAT [LRRC7_Y1058_S1063T] to QNTGNYYDLYG [PTPN11_Y62_D61N], the SH2 binding enrichment rises from 0.838 to 0.851.

Going from TSKLNYLDPRI [TOP1_Y723] to KKLAEYGPQGR [CLCA1_Y147], the SH2 binding enrichment rises from 0.813 to 0.901.

Going from REESTYLPLTS [ICAM3_Y527] to NVVHEYSSELE [FGB_Y172_N170H], the SH2 binding enrichment falls from 0.961 to 0.908.

Going from GGMTEYELVVV [KRAS_Y4_K5E] to HPFNSYTFPRL [PAK5_Y316_S312P_YF], the SH2 binding enrichment falls from 0.792 to 0.642.

First: SMAKFYASGIA [ACADSB_Y373_E376G_YF]
Second: DGLALYTGSAL [COL6A3_Y524_S521L]
The SH2 binding enrichment of the first is higher: 0.701 for the first, 0.695 for the second.

Compared with TYTVSYLPDMS [FLNC_Y1602], DHAGMYGLGDR [MAPT_Y18_T17M] is lower in SH2 binding enrichment: 0.792 for the first, 0.791 for the second.

First: AGGTRYRFVSQ [UCN3_Y95_R91G_YF]
Second: RDSQLYAVDYE [MRPS34_Y34]
The SH2 binding enrichment of the first is higher: 0.849 for the first, 0.69 for the second.

First: WKEREYEVVRD [CPS1_Y634_I632R]
Second: AGLEEYSAMRD [HRAS_Y64_Q61L]
The SH2 binding enrichment of the first is higher: 0.954 for the first, 0.821 for the second.

Going from ALAAPYVLYPS [CEFIP_Y1332_G1337S] to FIGVTYKNEED [PDGFRA_Y993_YF], the SH2 binding enrichment rises from 1.03 to 1.31.

EPDSLYGCGRG [ATM_Y2019_G2023R] was tested, and the SH2 binding enrichment was 0.93.
